According to patent CN112125972A (SINOCELLTECH LTD, dated 2020):

Key:
Assay in all cases: indirect ELISA, VLP coated at 2 μg/mL, antibody at 10 ng/mL
HPV33 VLP = target: T1, HPV33 VLP (Human papillomavirus type 33, UniProt P06416 1-499)
T1 construct: also called HPV33完整VLP蛋白
T1 sequence: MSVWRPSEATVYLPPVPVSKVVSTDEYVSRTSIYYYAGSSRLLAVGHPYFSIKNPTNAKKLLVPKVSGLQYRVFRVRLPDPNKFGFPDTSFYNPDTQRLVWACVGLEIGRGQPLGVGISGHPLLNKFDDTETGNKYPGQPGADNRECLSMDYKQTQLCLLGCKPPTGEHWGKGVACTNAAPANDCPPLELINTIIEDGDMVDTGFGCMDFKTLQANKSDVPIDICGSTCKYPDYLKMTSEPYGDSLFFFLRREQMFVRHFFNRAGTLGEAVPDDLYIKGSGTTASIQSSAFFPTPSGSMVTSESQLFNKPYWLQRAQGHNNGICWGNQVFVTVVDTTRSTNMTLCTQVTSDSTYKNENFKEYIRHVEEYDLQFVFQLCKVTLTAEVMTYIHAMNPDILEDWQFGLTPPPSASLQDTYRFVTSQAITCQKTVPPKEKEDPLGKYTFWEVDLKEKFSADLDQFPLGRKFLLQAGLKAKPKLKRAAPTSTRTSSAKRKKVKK

HPV58 VLP = target: T2, HPV58 VLP (Human papillomavirus type 58, UniProt P26535 27-524)
T2 construct: also called HPV58完整VLP蛋白
T2 sequence: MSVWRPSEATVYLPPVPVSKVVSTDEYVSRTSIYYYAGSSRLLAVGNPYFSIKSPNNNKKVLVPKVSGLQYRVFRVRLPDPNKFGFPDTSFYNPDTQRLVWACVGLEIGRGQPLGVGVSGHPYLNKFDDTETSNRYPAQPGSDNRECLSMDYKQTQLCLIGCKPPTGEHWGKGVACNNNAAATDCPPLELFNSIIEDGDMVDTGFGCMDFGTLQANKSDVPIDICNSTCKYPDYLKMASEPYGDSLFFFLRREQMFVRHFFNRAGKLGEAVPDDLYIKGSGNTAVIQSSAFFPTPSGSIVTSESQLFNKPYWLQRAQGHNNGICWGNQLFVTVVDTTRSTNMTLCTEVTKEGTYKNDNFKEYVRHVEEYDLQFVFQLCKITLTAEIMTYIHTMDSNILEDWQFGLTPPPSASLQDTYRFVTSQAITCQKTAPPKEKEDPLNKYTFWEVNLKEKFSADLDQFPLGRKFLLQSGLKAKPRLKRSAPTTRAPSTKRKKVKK

HPV51 VLP = target: T3, HPV51 VLP (Human papillomavirus type 51, UniProt P26536 1-504)
T3 construct: also called HPV51完整VLP蛋白
T3 sequence: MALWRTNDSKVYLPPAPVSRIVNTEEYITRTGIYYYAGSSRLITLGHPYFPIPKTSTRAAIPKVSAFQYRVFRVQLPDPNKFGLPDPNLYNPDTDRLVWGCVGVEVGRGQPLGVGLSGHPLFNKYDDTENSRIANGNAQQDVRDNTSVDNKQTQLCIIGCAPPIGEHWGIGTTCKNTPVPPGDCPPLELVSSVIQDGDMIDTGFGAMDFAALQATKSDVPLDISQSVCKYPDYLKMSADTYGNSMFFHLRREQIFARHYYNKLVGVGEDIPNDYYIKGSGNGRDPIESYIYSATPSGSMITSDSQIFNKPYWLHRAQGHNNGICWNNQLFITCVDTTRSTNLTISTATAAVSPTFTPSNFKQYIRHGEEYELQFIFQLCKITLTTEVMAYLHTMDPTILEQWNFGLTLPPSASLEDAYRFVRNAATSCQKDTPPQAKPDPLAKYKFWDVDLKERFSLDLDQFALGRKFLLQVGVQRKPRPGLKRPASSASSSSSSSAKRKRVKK

HPV11 VLP = target: T4, HPV11 VLP (Human papillomavirus type 11, UniProt P04012 1-501)
T4 construct: also called HPV11完整VLP蛋白
T4 sequence: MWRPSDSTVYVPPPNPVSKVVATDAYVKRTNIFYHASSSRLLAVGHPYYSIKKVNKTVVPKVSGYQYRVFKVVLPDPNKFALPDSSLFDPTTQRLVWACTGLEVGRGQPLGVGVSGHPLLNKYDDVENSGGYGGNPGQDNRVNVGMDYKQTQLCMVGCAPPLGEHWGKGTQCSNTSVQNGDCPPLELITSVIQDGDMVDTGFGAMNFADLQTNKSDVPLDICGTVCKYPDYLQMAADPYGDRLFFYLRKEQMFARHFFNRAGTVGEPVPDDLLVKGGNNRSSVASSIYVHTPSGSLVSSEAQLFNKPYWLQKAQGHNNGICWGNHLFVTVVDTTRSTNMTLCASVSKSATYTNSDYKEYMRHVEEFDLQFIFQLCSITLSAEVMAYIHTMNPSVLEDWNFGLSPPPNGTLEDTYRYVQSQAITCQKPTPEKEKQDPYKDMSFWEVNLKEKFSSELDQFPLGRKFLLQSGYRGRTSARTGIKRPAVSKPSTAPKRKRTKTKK

HPV59 VLP = target: T5, HPV59 VLP (Human papillomavirus type 59)
T5 construct: also called HPV59完整VLP蛋白

HPV6 VLP = target: T6, HPV6 VLP (Human papillomavirus type 6, UniProt P69899 1-500)
T6 construct: also called HPV6完整VLP蛋白
T6 sequence: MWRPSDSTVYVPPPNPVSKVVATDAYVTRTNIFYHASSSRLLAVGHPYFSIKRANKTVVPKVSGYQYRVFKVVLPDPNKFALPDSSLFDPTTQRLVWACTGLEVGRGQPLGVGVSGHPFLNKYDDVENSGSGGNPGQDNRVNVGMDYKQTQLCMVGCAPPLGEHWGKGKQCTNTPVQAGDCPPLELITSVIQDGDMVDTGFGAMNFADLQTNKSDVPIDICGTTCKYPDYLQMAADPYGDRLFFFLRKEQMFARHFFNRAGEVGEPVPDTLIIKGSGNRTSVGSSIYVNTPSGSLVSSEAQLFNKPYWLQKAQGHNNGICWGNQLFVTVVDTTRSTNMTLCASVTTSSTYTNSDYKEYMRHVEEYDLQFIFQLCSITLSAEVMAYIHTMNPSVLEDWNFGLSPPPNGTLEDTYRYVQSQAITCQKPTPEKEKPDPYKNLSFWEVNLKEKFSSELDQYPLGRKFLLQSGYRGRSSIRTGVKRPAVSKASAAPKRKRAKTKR

B1: HPV 16 R001 (antibody, V domains shown)
VH: QSVKESEGRLVTPGTPLTLTCTASGFTMSRYHMTWVRQAPGKGLEWIGIIYARNSDTYYANWAKGRFTISKTSTTVDLKITSPTIEDTATYFCARVDSDSSGAFDRLDLWGQGTLVTVSS
VL: DPMLTQTAASVEVAVGGTVTIKCQASQSIGGYLSWYQQKPGQRPKLLIYRASTLASGVPSRFKGSGSGTEYTLTFSGVECADAAAYYCQQGYTSSDINNAFGGGTEVVVK
notes: An HRP-labelled form served as detection antibody in the sandwich ELISA; also called HPV16.001; 单克隆抗体HPV 16 R001
With B1 the OD450-blank (HPV33 VLP) was 0.001 OD450, the OD450-blank (HPV58 VLP) was 0.003 OD450 and the OD450-blank (HPV51 VLP) was 0.001 OD450. For the same binder, the OD450-blank (HPV11 VLP) was 0.001 OD450, the OD450-blank (HPV59 VLP) was 0 OD450 and the OD450-blank (HPV6 VLP) was 0.004 OD450.
